Results: patent US20230355660A1
Square brackets hold non-standard residues; d marks the D form. Ends that are not written are not given here.

Target: mAB anti V5 (Thermo Scientific), mouse anti V5 antibody
Assay: ELISA: 1 µg/ml mouse anti V5 antibody with increasing amounts of SADC, complexes captured on streptavidin plate via biotinylated SADC peptide, bound IgG detected with anti mouse IgG-HRP

Row | EC50 [µg/mL] | Binder
1 | 0.0555 | IPNPLLGLDGGSGDYKDDDDKGK[BiotinAca]GC (peptide, part only; not given: haptoglobin scaffold, part only, also: peptide conjugated to haptoglobin scaffold, copy number not given here) [SADC with haptoglobin scaffold carrying tagged V5 peptide]
2 | 0.007 | IPNPLLGLDGGSGDYKDDDDKGK[BiotinAca]GC (peptide, part only; not given: transferrin scaffold, part only, also: peptide conjugated to transferrin scaffold, copy number not given here) [SADC with transferrin scaffold carrying tagged V5 peptide]
3 | 0.0279 | IPNPLLGLDGGSGDYKDDDDKGK[BiotinAca]GC (peptide, part only; not given: albumin scaffold, part only, also: peptide conjugated to albumin scaffold, copy number not given here) [SADC with albumin scaffold carrying tagged V5 peptide]
